Measured values taken from patent publication US20260055205A1 (published 2026).
Residue numbers refer to the chain shown, from its start. Names may count otherwise.

B1: PSMA.325 (bispecific antibody, V domains shown)
VH: QVQLVESGGGVVQPGRSLRLSCAASGRTFGIYVMGWFRQAPGKEREFVGAISWSGSNRKVSDSVKGRFTISRDNSKNTLYLQMNSLRAEDTAVRFCAASNKLYGRTWYDFNESDYWGQGTQVTVSS
notes: TCE with CD3.23; also called AC3727
B2: PSMA.334 (bispecific antibody, V domains shown)
VH: B1 VH with R94Y, L102D
notes: TCE with CD3.23; also called AC3736
B3: PSMA.360 (bispecific antibody, V domains shown)
VH: B1 VH with M34W, I51M, R94N, F95Y, A98G
notes: TCE with CD3.23; also called AC3762
B4: PSMA.332 (bispecific antibody, V domains shown)
VH: B1 VH with R94Y, A98G
notes: TCE with CD3.23; also called AC3734
B5: PSMA.353 (bispecific antibody, V domains shown)
VH: B1 VH with M34W, I51M, R94Y, A97G
notes: TCE with CD3.23; also called AC3755
B6: PSMA.355 (bispecific antibody, V domains shown)
VH: B1 VH with M34W, I51M, R94Y, L102D
notes: TCE with CD3.23; also called AC3757
B7: PSMA.358 (bispecific antibody, V domains shown)
VH: B1 VH with M34W, I51M, R94Y, A97G, A98G
notes: TCE with CD3.23; also called AC3760
B8: PSMA.350 (bispecific antibody, V domains shown)
VH: B1 VH with M34W, I51M, R94Y, F95Y, L102E
notes: TCE with CD3.23; also called AC3752
B9: PSMA.329 (bispecific antibody, V domains shown)
VH: B1 VH with R94K
notes: TCE with CD3.23; also called AC3731
B10: PSMA.336 (bispecific antibody, V domains shown)
VH: B1 VH with R94Y, L102G
notes: TCE with CD3.23; also called AC3738
B11: PSMA.346 (bispecific antibody, V domains shown)
VH: B1 VH with M34W, I51M, R94D, F95Y
notes: TCE with CD3.23; also called AC3748
B12: PSMA.351 (bispecific antibody, V domains shown)
VH: B1 VH with M34W, I51M, R94Y, F95Y, L102G
notes: TCE with CD3.23; also called AC3753
B13: PSMA.328 (bispecific antibody, V domains shown)
VH: B1 VH with R94G
notes: TCE with CD3.23; also called AC3730
B14: PSMA.339 (bispecific antibody, V domains shown)
VH: B1 VH with R94N, A98G
notes: TCE with CD3.23; also called AC3741
B15: PSMA.337 (bispecific antibody, V domains shown)
VH: B1 VH with R94A, A98G
notes: TCE with CD3.23; also called AC3739
B16: PSMA.357 (bispecific antibody, V domains shown)
VH: B1 VH with M34W, I51M, R94Y, L102G
notes: TCE with CD3.23; also called AC3759
B17: PSMA.347 (bispecific antibody, V domains shown)
VH: B1 VH with M34W, I51M, R94Y, F95Y, A97G
notes: TCE with CD3.23; also called AC3749
B18: PSMA.326 (bispecific antibody, V domains shown)
VH: B1 VH with R94N
notes: TCE with CD3.23; also called AC3728
B19: PSMA.341 (bispecific antibody, V domains shown)
VH: B1 VH with R94K, A98G
notes: TCE with CD3.23; also called AC3743
B20: PSMA.335 (bispecific antibody, V domains shown)
VH: B1 VH with R94Y, L102E
notes: TCE with CD3.23; also called AC3737
B21: PSMA.352 (bispecific antibody, V domains shown)
VH: B1 VH with M34W, I51M, R94D
notes: TCE with CD3.23; also called AC3754
B22: PSMA.359 (bispecific antibody, V domains shown)
VH: B1 VH with M34W, I51M, F95Y, A98G
notes: TCE with CD3.23; also called AC3761
B23: PSMA.327 (bispecific antibody, V domains shown)
VH: B1 VH with R94D
notes: TCE with CD3.23; also called AC3729
B24: PSMA.349 (bispecific antibody, V domains shown)
VH: B1 VH with M34W, I51M, R94Y, F95Y, L102D
notes: TCE with CD3.23; also called AC3751
B25: PSMA.345 (bispecific antibody, V domains shown)
VH: B1 VH with M34W, I51M, R94Y, F95Y, A97G, A98G
notes: TCE with CD3.23; also called AC3747
B26: PSMA.342 (bispecific antibody, V domains shown)
VH: B1 VH with R94S, A98G
notes: TCE with CD3.23; also called AC3744
B27: PSMA.331 (bispecific antibody, V domains shown)
VH: B1 VH with R94Y, A97G
notes: TCE with CD3.23; also called AC3733
B28: PSMA.338 (bispecific antibody, V domains shown)
VH: B1 VH with A98G
notes: TCE with CD3.23; also called AC3740
B29: PSMA.333 (bispecific antibody, V domains shown)
VH: B1 VH with R94Y, L102R
notes: TCE with CD3.23; also called AC3735
B30: PSMA.343 (bispecific antibody, V domains shown)
VH: B1 VH with R94T, A98G
notes: TCE with CD3.23; also called AC3745
B31: PSMA.340 (bispecific antibody, V domains shown)
VH: B1 VH with R94G, A98G
notes: TCE with CD3.23; also called AC3742
B32: PSMA.330 (bispecific antibody, V domains shown)
VH: B1 VH with R94S
notes: TCE with CD3.23; also called AC3732
B33: PSMA.356 (bispecific antibody, V domains shown)
VH: B1 VH with M34W, I51M, R94Y, L102E
notes: TCE with CD3.23; also called AC3758
B34: CD3.23-D (bispecific antibody, V domains shown)
VH: EVQLLESGGGIVQPGGSLKLSCAASGFTFNTYAMNWVRQAPGKGLEWVARIRSKYNNYATYYADSVKDRFTISRDDSKNTVYLQMNNLKTEDTAVYYCVRHENFGNSYVSWFAHWGQGTLVTVSS
VL: ELVVTQEPSLTVSPGGTVTLTCRSSNGAVTSSNYANWVQQKPGQAPRGLIGGTNKRAPGTPARFSGSLLGGKAALTLSGVQPEDEAVYYCALWYPNLWVFGGGTKLTVL
notes: paTCE with PSMA.5; also called AC3366; WT
B35: CD3.71 (bispecific antibody, V domains shown)
VH: B34 VH with Y55G
VL: B34 VL
notes: paTCE with PSMA.5; also called AC3400; Y52cG
B36: CD3.54 (bispecific antibody, V domains shown)
VH: B34 VH with I51A
VL: B34 VL
notes: paTCE with PSMA.5; also called AC3383; I51A
B37: CD3.72 (bispecific antibody, V domains shown)
VH: B34 VH with Y55K
VL: B34 VL
notes: paTCE with PSMA.5; also called AC3401; Y52cK
B38: CD3.38 (bispecific antibody, V domains shown)
VH: B34 VH with W47D
VL: B34 VL
notes: paTCE with PSMA.5; also called AC3367; W47D
B39: CD3.42 (bispecific antibody, V domains shown)
VH: B34 VH with V48G
VL: B34 VL
notes: paTCE with PSMA.5; also called AC3371; V48G
B40: CD3.68 (bispecific antibody, V domains shown)
VH: B34 VH with K54P
VL: B34 VL
notes: paTCE with PSMA.5; also called AC3397; K52bP
B41: CD3.48 (bispecific antibody, V domains shown)
VH: B34 VH with A49G
VL: B34 VL
notes: paTCE with PSMA.5; also called AC3377; A49G
B42: CD3.41 (bispecific antibody, V domains shown)
VH: B34 VH with V48E
VL: B34 VL
notes: paTCE with PSMA.5; also called AC3370; V48E
B43: CD3.40 (bispecific antibody, V domains shown)
VH: B34 VH with V48A
VL: B34 VL
notes: paTCE with PSMA.5; also called AC3369; V48A
B44: CD3.43 (bispecific antibody, V domains shown)
VH: B34 VH with V48S
VL: B34 VL
notes: paTCE with PSMA.5; also called AC3372; V48S
B45: CD3.67 (bispecific antibody, V domains shown)
VH: B34 VH with S53T
VL: B34 VL
notes: paTCE with PSMA.5; also called AC3396; S52aT
B46: CD3.70 (bispecific antibody, V domains shown)
VH: B34 VH with Y55R
VL: B34 VL
notes: paTCE with PSMA.5; also called AC3399; Y52cR
B47: CD3.45 (bispecific antibody, V domains shown)
VH: B34 VH with V48W
VL: B34 VL
notes: paTCE with PSMA.5; also called AC3374; V48W
B48: CD3.39 (bispecific antibody, V domains shown)
VH: B34 VH with W47E
VL: B34 VL
notes: paTCE with PSMA.5; also called AC3368; W47E
B49: CD3.56 (bispecific antibody, V domains shown)
VH: B34 VH with I51T
VL: B34 VL
notes: paTCE with PSMA.5; also called AC3385; I51T
B50: CD3.60 (bispecific antibody, V domains shown)
VH: B34 VH with R52Q
VL: B34 VL
notes: paTCE with PSMA.5; also called AC3389; R52Q
B51: CD3.69 (bispecific antibody, V domains shown)
VH: B34 VH with Y55A
VL: B34 VL
notes: paTCE with PSMA.5; also called AC3398; Y52cA
B52: CD3.44 (bispecific antibody, V domains shown)
VH: B34 VH with V48T
VL: B34 VL
notes: paTCE with PSMA.5; also called AC3373; V48T

Molecular target: T1, human PSMA (human, UniProt Q04609 44-750, limits assumed)
T1 construct: also called huPSMA; hPSMA
Assay: binding screen

T1 sequence (Q04609 44-750 limits assumed): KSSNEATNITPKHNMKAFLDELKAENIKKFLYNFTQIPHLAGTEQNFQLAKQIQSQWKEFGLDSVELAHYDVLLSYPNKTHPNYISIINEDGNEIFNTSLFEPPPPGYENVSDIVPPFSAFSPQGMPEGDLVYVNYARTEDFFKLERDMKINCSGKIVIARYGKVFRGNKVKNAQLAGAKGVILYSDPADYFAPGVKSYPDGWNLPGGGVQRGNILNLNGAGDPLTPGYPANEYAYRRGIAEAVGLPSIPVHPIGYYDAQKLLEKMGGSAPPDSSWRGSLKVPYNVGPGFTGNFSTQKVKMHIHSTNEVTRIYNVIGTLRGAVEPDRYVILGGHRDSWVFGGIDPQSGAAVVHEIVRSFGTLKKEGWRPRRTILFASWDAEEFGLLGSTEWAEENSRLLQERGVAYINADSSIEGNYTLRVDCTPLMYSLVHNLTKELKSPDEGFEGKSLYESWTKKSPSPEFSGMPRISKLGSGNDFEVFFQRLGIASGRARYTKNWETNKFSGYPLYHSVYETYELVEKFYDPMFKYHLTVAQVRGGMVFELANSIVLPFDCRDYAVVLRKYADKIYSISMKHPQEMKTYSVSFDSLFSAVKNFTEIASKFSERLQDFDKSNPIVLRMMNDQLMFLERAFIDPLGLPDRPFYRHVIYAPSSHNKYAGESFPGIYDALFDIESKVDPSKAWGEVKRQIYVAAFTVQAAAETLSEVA

Binder	binding result	Kd [nM]
B1	no binding	
B2		70.6
B3	no binding	
B4		24.1
B5		5.1
B6		17.8
B7		6.5
B8		7.4
B9	no binding	
B10		129
B11	no binding	
B12		32.6
B13	no binding	
B14	no binding	
B15	no binding	
B16		24.6
B17		7.3

Binder	binding result	Kd [nM]
B18	no binding	
B19	no binding	
B20		24.8
B21	no binding	
B22	no binding	
B23	no binding	
B24		18
B25		6.1
B26	no binding	
B27		12.1
B28	no binding	
B29	no binding	
B30	no binding	
B31	no binding	
B32	no binding	
B33		7.8

Molecular target: T2, human CD3 epsilon (human, UniProt P07766 23-126, limits assumed)
T2 construct: also called huCD3e
Assay: Octet, crude lysate
Excerpt: To achieve this, Pool 1 was created, which included 74 paTCE molecules, each containing PSMA.5 and one of the 74 CD3.23 mutation variants. Single mutations were chosen based on analyses including CD3.23 PTE score analysis (using internal PTE algorithm v12) and structural analysis. Structural considerations included: possible contact disruption, anticipated steric clashes, side chain charge maintenance and possible pockets filling. Stability and affinity of the individually expressed molecules in the form of crude lysate was evaluated by Octet (ForteBio).

T2 sequence (P07766 23-126 limits assumed): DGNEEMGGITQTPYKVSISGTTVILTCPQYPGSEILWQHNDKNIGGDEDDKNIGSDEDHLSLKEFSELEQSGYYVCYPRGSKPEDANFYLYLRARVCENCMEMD

Binder	Kd [nM]
B34	14
B35	20.1
B36	1180
B37	5.1
B38	40.2
B39	71.5
B40	51
B41	4.5
B42	165
B43	8.3
B44	11.2
B45	4.8
B46	3.8
B47	34300
B48	18.1
B49	425
B50	434
B51	11.5
B52	5.7
